Earlier results, collected in publication PMC6784060.

Molecular target: Beclin-1 BH3 (Homo sapiens) (UniProt Q14457)
Sequence of UniProt Q14457 (Q14457 107-127): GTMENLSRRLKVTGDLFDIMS

In the case of Bcl-xL (from UniProt Q07817), the Kd is given as 1700 nM.
